According to paper PMC4747905, “Structure of BRCA1-BRCT/Abraxas Complex Reveals Phosphorylation-Dependent BRCT Dimerization at DNA Damage Sites” (Molecular Cell, 2016):
Square brackets hold non-standard residues; d marks the D form. Ends that are not written are not given here. pS = N[C@@H](COP(=O)(O)O)C(=O)O

Tests used:
[1] = target: the molecule itself; assay: SEC; BRCT and peptide mixed 1:3 (molar), final 1 mg/ml (about 40 μM), Superdex 75 10/300, Buffer A, 0.5 ml/min
BRCA1 BRCT domains [2] = target: T1, BRCA1 BRCT domains (UniProt P38398 1646-1859); assay: native MS; peak fractions from gel filtration, 15 μM protein, 300 mM ammonium acetate pH 7.6, nano-electrospray; conditions: both partners purified
T1 construct: BRCA1 tandem BRCT domains (BRCT1 and BRCT2); construct limits are in the Supplemental Information; also called BRCT domain only; source: purified; construction and purification are described in the Supplemental Information

BRCA1 BRCT domains [3] = target: T1, BRCA1 BRCT domains; assay: SEC; BRCT and peptide mixed 1:3 (molar), final 1 mg/ml (about 40 μM), Superdex 75 10/300, Buffer A, 0.5 ml/min; conditions: both partners purified

Row | Binder | binding result (BRCA1 BRCT domains [3]) | further results
1 | BRCT-Ab2p_short complex (complex, phosphoserine at S404 and S406, as m1: BRCA1 tandem BRCT domains; limits in the Supplemental Information; as m5: Abraxas C-terminal peptide YpSRpSPTF; the 1:1 unit of m1 and m5; source: purified BRCT mixed with peptide at 1:3 molar ratio) VNKRMSMVVSGLTPEEFMLVYKFARKHHITLTNLITEETTHVVMKTDAEFVCERTLKYFLGIAGGKWVVSYFWVTQSIKERKMLNEHDFEVRGDVVNGRNHQGPKRARESQDRKIFRGLEICCYGPFTNMPTDQLEWMVQLCGASVVKELSSFTLGTGVHPIVVVQPDAWTEDNGFHAIGQMCEAPVVTREWVLDSVALYQCQELDTYLIPQIP peptide: YSRSPTF |  | binding result [1]: binds
2 | GFGEYSR[pS]PTF (Abraxas C-terminal peptide, printed as GFGEYSRpSPTF; source: synthesized peptide) [Abraxas single phosphorylated peptide Ab1p] |  | stoichiometry N (BRCA1 BRCT domains [2]): 1
3 | GDGEY[pS]R[pS]PTF (peptide, UniProt Q6UWZ7 399-409, looked up, Abraxas C-terminal peptide, as Ab2p (GFGEYpSRpSPTF) with F400D) [Abraxas peptide Ab2p (F400D)] | binds | 
4 | GFGEYDR[pS]PTF (peptide, UniProt Q6UWZ7 399-409, looked up, Abraxas C-terminal peptide, as Ab1p (GFGEYSRpSPTF) with the phosphomimetic S404D) [Abraxas peptide Ab1p (S404D)] | binds | 
5 | GFGRY[pS]R[pS]PTF (peptide, UniProt Q6UWZ7 399-409, looked up, Abraxas C-terminal peptide, as Ab2p (GFGEYpSRpSPTF) with E402R) [Abraxas peptide Ab2p(E402R)] | binds | 
6 | GFGEYPR[pS]PTF (peptide, UniProt Q6UWZ7 399-409, looked up, Abraxas C-terminal peptide, as Ab1p (GFGEYSRpSPTF) with S404P) [Abraxas peptide Ab1p (S404P)] | binds | 
7 | GFGEA[pS]R[pS]PTF (peptide, UniProt Q6UWZ7 399-409, looked up, Abraxas C-terminal peptide, as Ab2p (GFGEYpSRpSPTF) with Y403A) [Abraxas peptide Ab2p(Y403A)] | binds | 
8 | Y[pS]R[pS]PTF (Abraxas C-terminal peptide without GFGE, printed as YpSRpSPTF; source: synthesized peptide) [Abraxas double phosphorylated peptide Ab2p_short] | binds | 
9 | A[pS]R[pS]PTF (peptide, UniProt Q6UWZ7 403-409, looked up, also called Abraxas(Y403A)_short) [Abraxas peptide Ab2p(Y403A_short)] | binds | 
10 | PTRVS[pS]PVFGAT [CtIP phosphopeptide] |  | stoichiometry N (BRCA1 BRCT domains [2]): 1
11 | ISRST[pS]PTFNKQTK [Bach1 phosphopeptide] |  | stoichiometry N (BRCA1 BRCT domains [2]): 1
